The source of these data is publication PMC7952408.

Entries after “also recorded” stand apart in the source; their conditions may differ.

The conditions of this data set: N-glycosylation at N297.

On to “Maxatezo / Atezolizumab (anti-PD-L1 human IgG1) heavy chain: N297A (Atezolizumab) compared with A297N back-mutation + GGGS insertion (Maxatezo)”, for which the expression_or_secretion result is given as “decreases, 1.3 g/L (aglycosylated) vs up to 4 g/L (Maxatezo)”; the other entry is listed as “increases”; the stability_or_folding result was “decreases, Tm1 71.01 °C (Maxatezo) vs 63.55 °C (Atezolizumab), 7.46 °C difference; also recorded: decreases, Tagg 71.2 °C (Maxatezo) vs 60.7 °C (Atezolizumab), 10.5 °C difference”.
